From patent US20240417476A1 (ATYR PHARMA, published 2024)
Ends that are not written are not given here.

T1: human NRP2b expressed on Expi293F cells (human)
T1 construct: also called full length NRP2b
T1 chain: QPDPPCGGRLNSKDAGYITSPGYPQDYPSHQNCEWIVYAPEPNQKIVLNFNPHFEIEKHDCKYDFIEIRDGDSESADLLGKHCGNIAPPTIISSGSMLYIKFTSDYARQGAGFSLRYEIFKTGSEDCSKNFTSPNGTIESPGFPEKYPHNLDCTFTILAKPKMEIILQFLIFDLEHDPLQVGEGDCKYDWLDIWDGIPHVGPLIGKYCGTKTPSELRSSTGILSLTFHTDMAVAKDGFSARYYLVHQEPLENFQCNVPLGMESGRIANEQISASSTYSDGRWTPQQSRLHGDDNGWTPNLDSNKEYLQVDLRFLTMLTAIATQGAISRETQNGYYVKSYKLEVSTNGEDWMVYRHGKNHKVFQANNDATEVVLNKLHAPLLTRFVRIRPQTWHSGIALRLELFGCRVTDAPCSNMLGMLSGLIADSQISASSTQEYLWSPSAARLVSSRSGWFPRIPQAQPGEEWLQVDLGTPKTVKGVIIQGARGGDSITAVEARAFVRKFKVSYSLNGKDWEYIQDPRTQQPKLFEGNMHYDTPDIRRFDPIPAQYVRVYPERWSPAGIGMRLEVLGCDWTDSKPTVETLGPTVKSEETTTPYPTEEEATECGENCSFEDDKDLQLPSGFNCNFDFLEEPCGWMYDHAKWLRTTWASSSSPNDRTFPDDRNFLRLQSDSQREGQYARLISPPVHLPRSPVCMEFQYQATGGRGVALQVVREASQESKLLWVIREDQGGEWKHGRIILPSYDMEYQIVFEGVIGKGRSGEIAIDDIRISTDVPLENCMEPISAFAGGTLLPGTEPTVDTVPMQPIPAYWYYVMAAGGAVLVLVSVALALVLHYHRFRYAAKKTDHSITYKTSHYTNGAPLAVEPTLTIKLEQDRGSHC

T2: NRP2b peptide (biotinylated) (human, biotin-conjugated, site not stated)
T2 construct: also called NRP2b isoform specific peptide
T2 peptide: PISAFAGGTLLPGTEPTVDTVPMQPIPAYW

T3: NRP2v3
T3 construct: not the NanoLuc-tagged construct m33; also called human NRP2 v3 expressed on Expi293F cells; NRP2a v3
T3 chain: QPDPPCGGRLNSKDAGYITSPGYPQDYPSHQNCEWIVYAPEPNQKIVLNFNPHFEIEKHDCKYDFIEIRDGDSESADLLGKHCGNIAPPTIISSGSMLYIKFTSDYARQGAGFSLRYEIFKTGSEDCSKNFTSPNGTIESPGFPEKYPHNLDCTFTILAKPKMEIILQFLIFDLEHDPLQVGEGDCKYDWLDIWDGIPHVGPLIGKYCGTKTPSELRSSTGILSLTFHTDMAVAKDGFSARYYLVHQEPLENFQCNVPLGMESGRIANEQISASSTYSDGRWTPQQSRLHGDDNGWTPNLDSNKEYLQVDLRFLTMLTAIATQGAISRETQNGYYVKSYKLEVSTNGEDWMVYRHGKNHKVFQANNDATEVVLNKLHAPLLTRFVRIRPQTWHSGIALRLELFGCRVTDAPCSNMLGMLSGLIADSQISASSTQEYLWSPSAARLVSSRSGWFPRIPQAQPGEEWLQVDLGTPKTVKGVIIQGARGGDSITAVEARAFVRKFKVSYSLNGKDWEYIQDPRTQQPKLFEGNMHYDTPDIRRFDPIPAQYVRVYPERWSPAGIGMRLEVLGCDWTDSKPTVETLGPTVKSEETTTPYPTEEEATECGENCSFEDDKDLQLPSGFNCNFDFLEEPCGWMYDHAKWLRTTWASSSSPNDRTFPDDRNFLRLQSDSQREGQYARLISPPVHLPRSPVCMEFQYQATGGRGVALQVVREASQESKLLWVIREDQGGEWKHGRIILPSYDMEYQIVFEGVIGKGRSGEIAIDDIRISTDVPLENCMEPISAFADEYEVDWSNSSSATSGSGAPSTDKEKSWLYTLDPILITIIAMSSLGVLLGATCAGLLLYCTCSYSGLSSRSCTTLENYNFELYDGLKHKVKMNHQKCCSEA

T4: NRP2a_scan 6 peptide (biotinylated) (human, also: biotin-conjugated, site not given here)
T4 peptide: IDDEYEVDWSNS

T5: NRP2a_scan 3 peptide (biotinylated) (human, also: biotin-conjugated, site not given here)
T5 peptide: HEREGYEDEIDD

T6: NRP2a_scan 4 peptide (biotinylated) (human, also: biotin-conjugated, site not given here)
T6 peptide: EGYEDEIDDEYE

T7: NRP2a_scan 5 peptide (biotinylated) (human, also: biotin-conjugated, site not given here)
T7 peptide: EDEIDDEYEVDW

T8: NRP2a_scan 7 peptide (biotinylated) (human, also: biotin-conjugated, site not given here)
T8 peptide: EYEVDWSNSSSA

T9: Mid-NRP2A peptide (biotinylated) (human, biotin-conjugated, site not stated)
T9 peptide: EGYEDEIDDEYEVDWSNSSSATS

T10: NRP2a_scan 1 peptide (biotinylated) (human, also: biotin-conjugated, site not given here)
T10 peptide: VDIPEIHEREGY

T11: NRP2a_scan 2 peptide (biotinylated) (human, also: biotin-conjugated, site not given here)
T11 peptide: PEIHEREGYEDE

T12: Mid-mNRP2A peptide (biotinylated) (mouse, biotin-conjugated, site not stated)
T12 peptide: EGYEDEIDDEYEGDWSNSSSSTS

B1: aNRP2-404v2 (antibody, V domains shown)
VH: EVQLQQSGPELVKPGASVKISCKASGYTFTDYNMHWVKQSHGKSLEWIGYIYPYNGDSGYNQRFKSEATLTVDISSSTAYMELRSLTSDDSAVYYCARLGRGYWGQGTTLTVSS
VL: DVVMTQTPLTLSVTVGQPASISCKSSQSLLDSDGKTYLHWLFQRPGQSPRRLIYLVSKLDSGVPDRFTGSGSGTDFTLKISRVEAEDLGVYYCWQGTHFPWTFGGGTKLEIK
notes: Mouse monoclonal
B2: aNRP2-401v2 (antibody, V domains shown)
VH: EVQLQESGGGLVKPGGSLKLSCAASGFTFSDYGMHWVRQAPEKGLEWVATISRDINTVYYADTVKGRFTISRDNAKNTLFLQVTSLRSEDTAMYYCTRGGYTDYWGQGTTLTVSS
VL: DIVMTQTPLSLPVSLGDQASISCRSSQSLVHSNGNTYLYWYLQRPGQSPKLLIYKVSNRFSGVPDRFSGSGSGTDFTLKISRVEAEDLGVYFCSQSTHVLTFGGGTKLEIK
notes: Mouse monoclonal
B3: aNRP2-400v2 (antibody, V domains shown)
VH: EVQLQESGAELARPGASVKLSCKASGYTFRSYGISWVKQRTGQGLEWIGEIYPRSGNTYYDENFKGRATLTADKSSSTAFMELRSLTSEDSAVYFCARSSITAVVAIPYYYAMDYWGQGTSVTVSS
VL: DIQMTQTTSSLSASLGDRVTISCSASQGISNYLNWYQQKPDGSVKLLIYYTSSLHSGVPSRFSGSGSGTDYSLTISNLEPEDIATYYCQQYSKLPHTFGGGTKLELK
notes: Mouse monoclonal

Legend:
[1] = target: T1, human NRP2b expressed on Expi293F cells; assay: flow cytometry, Expi293F cells transfected with the target, fluorescent anti-mouse secondary; MFI signal relative to mock-transfected cells
Experimental: (§1) Signal to noise was calculated as the staining intensity of transfected cells compared to an un-transfected ‘mock’ population.

[2] = target: T13, Human NRP2a v2 (926aa) in pBiT2.1-C with C-terminal split NanoLuc tag, expressed in Expi293 cells (human, UniProt O60462 23-931); assay: CCL21-induced NRP2a/CCR7 receptor dimerization (NanoBiT, Example 7); mark beside the epitope box
T13 construct: cDNA Origene RCC220706, isoform 2; also called pBiT2.1-C-NRP2v2 (isoform 2); NRP2 v2; not shown: vector-encoded spacer and small split NanoLuc fragment (pBiT2.1-C)

[3] = target: T2, NRP2b peptide (biotinylated); assay: peptide ELISA
[4] = target: T14, NRP2A peptide (biotinylated) (human, biotin-conjugated, site not stated); assay: BLI, isoform peptide on sensor, 50 nM antibody
T14 construct: also called NPR2A; NRP2a specific peptide

[5] = target: T3, NRP2v3; assay: flow cytometry, Expi293F cells transfected with the target, fluorescent anti-mouse secondary; MFI signal relative to mock-transfected cells
Experimental: as §1

[6] = target: T4, NRP2a_scan 6 peptide (biotinylated); assay: BLI, peptide on sensor;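 also: octet RED96e biolayer interferometry with biotin-conjugated NRP2 peptides spanning isoform-specific regions (human and mouse) loaded on biosensors, antibodies applied at 50 nM, association read over 300 s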
Experimental: (§2) Biolayer interferometry (BLI) experiments were carried out on an Octet RED96e instrument (Sartorius) to further characterize antibody affinities to the NRP2 peptides screened above. Antibodies were epitope mapped using peptides that span the NRP2a isoform specific region; antibodies were also tested for reactivity to an NRP2b isoform specific peptide and cross-reactivity to mNRP2a and mNRP2b peptides (see Table E2 for peptide sequences).
(§3) Antibodies and peptides were diluted in 1×PBS, 0.1% BSA, 0.02% Tween 20, pH 7.4. […] The biosensors were then dipped into 50 nM solutions of each antibody and read for 300s. The biosensors were regenerated in 10 mM glycine, pH 1.5 in between cycles of different antibodies.

[7] = target: T5, NRP2a_scan 3 peptide (biotinylated); assay: BLI, peptide on sensor;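 also: octet RED96e biolayer interferometry with biotin-conjugated NRP2 peptides spanning isoform-specific regions (human and mouse) loaded on biosensors, antibodies applied at 50 nM, association read over 300 s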
Experimental: as §2, §3

[8] = target: T6, NRP2a_scan 4 peptide (biotinylated); assay: BLI, peptide on sensor;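 also: octet RED96e biolayer interferometry with biotin-conjugated NRP2 peptides spanning isoform-specific regions (human and mouse) loaded on biosensors, antibodies applied at 50 nM, association read over 300 s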
Experimental: as §2, §3

[9] = target: T7, NRP2a_scan 5 peptide (biotinylated); assay: BLI, peptide on sensor;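 also: octet RED96e biolayer interferometry with biotin-conjugated NRP2 peptides spanning isoform-specific regions (human and mouse) loaded on biosensors, antibodies applied at 50 nM, association read over 300 s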
Experimental: as §2, §3

[10] = target: T8, NRP2a_scan 7 peptide (biotinylated); assay: BLI, peptide on sensor
Experimental: as §2, §3

[11] = target: T9, Mid-NRP2A peptide (biotinylated); assay: BLI, peptide on sensor
Experimental: as §2, §3

[12] = target: mNRP2b peptide (biotinylated) (mouse, biotin-conjugated, site not stated); assay: BLI, peptide on sensor
mNRP2b peptide (biotinylated) (mouse, biotin-conjugated, site not stated), sequence (peptide, as listed by the source): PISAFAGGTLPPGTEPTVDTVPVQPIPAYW

[13] = target: T10, NRP2a_scan 1 peptide (biotinylated); assay: BLI, peptide on sensor, 50 nM antibody
[14] = target: T11, NRP2a_scan 2 peptide (biotinylated); assay: BLI, peptide on sensor, 50 nM antibody
[15] = target: T15, Short NRP2A peptide (biotinylated) (human, biotin-conjugated, site not stated); assay: BLI, peptide on sensor, 50 nM antibody
[16] = target: T10, NRP2a_scan 1 peptide (biotinylated); assay: BLI, peptide on sensor
Experimental: as §2, §3

[17] = target: T11, NRP2a_scan 2 peptide (biotinylated); assay: BLI, peptide on sensor
Experimental: as §2, §3

[18] = target: T2, NRP2b peptide (biotinylated); assay: BLI, peptide on sensor
Experimental: as §2, §3

[19] = target: T15, Short NRP2A peptide (biotinylated); assay: BLI, peptide on sensor
Experimental: as §2, §3

[20] = target: T4, NRP2a_scan 6 peptide (biotinylated); assay: BLI, peptide on sensor, 50 nM antibody
[21] = target: T12, Mid-mNRP2A peptide (biotinylated); assay: BLI, peptide on sensor, 50 nM antibody
[22] = target: T7, NRP2a_scan 5 peptide (biotinylated); assay: BLI, peptide on sensor, 50 nM antibody
[23] = target: T16, mNRP2A peptide (biotinylated) (mouse, biotin-conjugated, site not stated); assay: BLI, peptide on sensor, 50 nM antibody
T16 construct: also called mouse NRP2 isoform a peptide

[24] = target: T9, Mid-NRP2A peptide (biotinylated); assay: BLI, peptide on sensor, 50 nM antibody
[25] = target: T16, mNRP2A peptide (biotinylated); assay: BLI, peptide on sensor
[26] = target: T2, NRP2b peptide (biotinylated); assay: BLI, peptide on sensor
[27] = target: T10, NRP2a_scan 1 peptide (biotinylated); assay: peptide ELISA
[28] = target: T12, Mid-mNRP2A peptide (biotinylated); assay: BLI, peptide on sensor
Experimental: as §2, §3

Binder	binding result [1]	blocks receptor dimerization [2]	binding result [4]	binding result [5]	binding result [6]	binding result [7]	binding result [8]	binding result [9]	binding result [10]	binding result [11]	binding result [12]	binding result [15]	binding result [17]	other results
B1	no binding	< 50%	binds	no binding	no binding (tested: 50 nM)	no binding (tested: 50 nM)	no binding (tested: 50 nM)	no binding (tested: 50 nM)	no binding (tested: 50 nM)	no binding (tested: 50 nM)	no binding (tested: 50 nM)	binds	–	binding result [3]: no binding (tested: <3x blank); binding result [13]: binds; binding result [14]: binds
B2	–	–	binds	–	–	no binding (tested: 50 nM)	no binding (tested: 50 nM)	–	no binding (tested: 50 nM)	–	no binding (tested: 50 nM)	–	no binding (tested: 50 nM)	binding result [16]: no binding (tested: 50 nM); binding result [18]: no binding (tested: 50 nM); binding result [19]: no binding (tested: 50 nM); binding result [20]: binds; binding result [21]: binds; binding result [22]: binds; binding result [23]: binds; binding result [24]: binds
B3	no binding	> 50%	binds	no binding	no binding (tested: 50 nM)	no binding (tested: 50 nM)	no binding (tested: 50 nM)	no binding (tested: 50 nM)	no binding (tested: 50 nM)	no binding (tested: 50 nM)	no binding (tested: 50 nM)	binds	no binding (tested: 50 nM)	binding result [25]: no binding (tested: 50 nM); binding result [26]: no binding (tested: 50 nM); binding result [27]: binds; binding result [28]: no binding (tested: 50 nM)
